According to patent US20230203156A1, “ANTI-MDR1 ANTIBODIES AND USES THEREOF” (KENJOCKETY BIOTECHNOLOGY, INC., priority 2020, published 2023):

Columns and labels:
[1] = molecular target: T1, human MDR1 extracellular loops 1 and 4 (ECD1, ECD4) (Homo sapiens, UniProt P08183); assay: Epitope mapping with mutant human MDR1 expressed on 293T cells (flow cytometry); assay type: binding; details: extracellular loop 1 and extracellular loop 4
T1 construct: FLAG (C); expressed in transfected cells; host or cells: 293T
Text: To determine binding of anti-MDR1 mAbs listed in Table 2 to the two major extracellular loops 1 and 4 of MDR1, various mutations were constructed to alter or substitute these two loops. To examine binding to cynomolgus extracellular loops, the extracellular loop 1 and/or loop 4 of cynomolgus MDR1 were grafted (with a C-terminal FLAG tag) to substitute for the human loops in the human MDR1 using standard techniques. To examine binding dependence on the normal human loops, MDR1 variants with deletion 79-102 and deletion 82-99 in loop 1 were also generated. Loop 1 is also referred to as ECD1. Loop 4 is also referred to as ECD4. These mutant MDR1 efflux pump variants were expressed on 293T cells using standard methods to generate cells that could be used to distinguish binding of various anti-MDR1 mAbs. The different cells were incubated with different anti-MDR1 mAbs for about 1 hour at 4° C. The cells were washed twice with FACS buffer (PBS containing 0.5% BSA). Alexa647 labeled goat anti-human antibody was added as a secondary antibody, and the samples were incubated on ice for another 1 hour. Samples were washed again and analyzed by flow cytometry.
FIG. 9 summarizes the findings from preliminary epitope mapping using mutant human MDR1. […] For example, anti-MDR1 mAb B1.129 requires ECD1 and ECD4 for binding to human MDR1. All of the anti-MDR1 antibodies contact ECD4. […] ECD1 refers to the first extracellular domain of human ABCB1, ECD4 refers to the fourth extracellular domain of human ABCB1 and “others” refers to the remainder of the extracellular domains 2-3 and 5-6 of human ABCB1. Only binding to ECD1 and ECD4 was tested.

[2] = tested on: A2780 ADR ovarian carcinoma; assay: A2780 ADR drug-resistant ovarian carcinoma model in nude mice; assay type: in vivo; details: for tumor volume, single agent: antibody as a single agent; for tumor volume, in combination with paclitaxel: antibody plus paclitaxel
Experimental: Anti-ABCB1 antibodies B1.129, B1.261, B1.223, B1.225, B1.188, B1.28, and B1.226 were tested for effect on growth of tumors in immunodeficient mice. The following cancer cell lines were used for generating tumor models.
A2780 ADR: The adriamycin-resistant cell line A2780ADR has been developed by exposure of the parent A2780 cell line (Sigma catalogue no. 93112519) to adriamycin. A2780ADR is cross-resistant to melphalan and vinblastine. To retain resistance adriamycin has to be added to the media. The cells grow as a monolayer and in suspension in spinner cultures and are tumorigenic in immune deficient mice. Together with the cisplatin-resistant variant A2780cis these lines only differ in their exposure to a single drug and should facilitate the search for molecular changes responsible for the expression of pleiotropic drug resistance in human ovarian cancer.
Nude mice were implanted with A2780 ADR cells to model ovarian carcinoma. Anti-B1 monoclonal antibodies are efficacious in A2780 ADR ovarian carcinoma model in nude mice.

Row | Molecule | epitope on human MDR1 [1] | tumor volume, single agent [2] | tumor volume, in combination with paclitaxel [2]
1 | B1.198: anti-MDR1 antibody, Mouse; VH SEQ ID NO:88, VL SEQ ID NO:90 (antibody, listed as Mus musculus, V domains shown) VH: EVQLVESGGALVKPGGSLKLSCAASGFTFSNYAMSWVRQTPEKRLEWVATISSGGSYTYYPDSVKGRFTISRDNAKNTLYLQMSSLRSEDTALYYCAKYSNYGRFAYWGQGTLVTVSA VL: DVVMTQTPLSLPVSLGDQASISCRSSQSIVDSNGNTYLEWYLQKPGQSPKLLIYKVSNRFFGVPDRFSGSGSGTDFTLKISRVEAEDLGVYYCFQGSHVPYTFGGGTKLEIK | bind to an epitope comprising extracellular loop 1 and extracellular loop 4 |  | 
2 | B1.201: anti-MDR1 antibody, Mouse; VH SEQ ID NO:92, VL SEQ ID NO:95 (antibody, listed as Mus musculus, V domains shown) VH: EVQLVESGGALMKPGGSLKFSCAASGFTFTNYAMSWVRQTPEKRLEWVATISSGGSNTYYSDSVKGRFTISRDNAKTTLYLQMSGLRSEDTALYYCAKFSNFGRFASWGQGTLVTVSA VL: DVLMTQTPLSLPVSLGDQASISCRFSQSIVHSSGNTYLEWYLQKPGQSPRLLIYKVSNRFFGVPDRISGSGSGTDFTLRISRVEAEDLGVYYCFQGSHVPYTFGGGTKLEIK | bind to an epitope comprising extracellular loop 1 and extracellular loop 4 |  | 
3 | B1.219: anti-MDR1 antibody, Mouse; VH SEQ ID NO:99, VL SEQ ID NO:101 (antibody, listed as Mus musculus, V domains shown) VH: EVQLVESGGALVKPGGSLKLSCAASGFTFSNYAMSWVRQTPEKRLEWVATISSVGSYTYYPDSVKGRFTISRDNAKTTLYLQMSGLRSEDTALYYCAKYSNYGRFASWGQGTLVTVST VL: DVLMTQTPLSLPASLGDQASISCRSSQSIVHSSGNTYLEWYLQKPGQSPRLLIYKVSNRFFGVPDRISGSGSGTDFTLRISRVEAEDLGVYYCFQGSHVPYTFGGGTKLEIE | bind to an epitope comprising extracellular loop 1 and extracellular loop 4 |  | 
4 | B1.184: anti-MDR1 antibody, Mouse; VH SEQ ID NO:74, VL SEQ ID NO:76 (antibody, listed as Mus musculus, V domains shown) VH: GVQLVESGGALVKPGGSLKLSCAASGFTFSNYAMSWVRQTPEKRLEWVATISSGGSYTYYPDSVKGRFTISRDNAKTTLYLQMSGLRSEDTALYYCAKYSNYGRFASWGQGTLVTVST VL: DVLMTQTPLSLPVSLGDQASISCRSSQSIVHSSGNTYLEWYLQKPGQSPRLLIYKVSNRFFGVPDRISGSGSGTDFTLRISRVEAEDLGVYYCFQGSHVPYTFGGGTKLEIK | bind to an epitope comprising extracellular loop 1 and extracellular loop 4 |  | 
5 | B1.207: anti-MDR1 antibody, Mouse; VH SEQ ID NO:74, VL SEQ ID NO:76 (antibody, listed as Mus musculus, V domains shown) VH: GVQLVESGGALVKPGGSLKLSCAASGFTFSNYAMSWVRQTPEKRLEWVATISSGGSYTYYPDSVKGRFTISRDNAKTTLYLQMSGLRSEDTALYYCAKYSNYGRFASWGQGTLVTVST VL: DVLMTQTPLSLPVSLGDQASISCRSSQSIVHSSGNTYLEWYLQKPGQSPRLLIYKVSNRFFGVPDRISGSGSGTDFTLRISRVEAEDLGVYYCFQGSHVPYTFGGGTKLEIK | bind to an epitope comprising extracellular loop 1 and extracellular loop 4 |  | 
6 | B1.236: anti-MDR1 antibody, Mouse; VH SEQ ID NO:115, VL SEQ ID NO:116 (antibody, listed as Mus musculus, V domains shown) VH: EAQLVESGGALVKPGGSLKLSCSASGFTFSNYAMSWVRQTPEKRLEWVATISSGGTNTYYPGSVKGRFTIARDNAKNTLYLLMSSLRSEDTALYFCAKYSNLAWFASWGQGTLVTVSA VL: QIVLTQSPLSLPVSLGDQASISCRSSQSLVHSIGNTYLEWYLQKPGQSPKFLISKVSNRFSGVPDRFSGSGSGTDFTLKISRVEAEDLGIYYCFQGSHVPYTFGGGTKLEIK | bind to an epitope comprising extracellular loop 1 and extracellular loop 4 |  | 
7 | B1.188: anti-MDR1 antibody, Mouse; VH SEQ ID NO:66, VL SEQ ID NO:79 (antibody, listed as Mus musculus, V domains shown) VH: EVMLVESGGALVKPGGSLKLSCAASGFTFSNYAMSWVRQTPEKRLEWVATISSGGSYTYYPDSVKGRFTISRDNARNTLYLQMSSLRSEDTAMYYCARGYGNFAWFAYWGQGTLVTVSA VL: DIQMTQSPLSLPVSLGDQASISCRSSQSIVHSTGNTYLEWYLQKPGQSPKLLIYKVSNRFSGVPDRFSGSGSGTDFTLKISRVEAEDLGVYYCFQGSHVPFTFGSGTKLEIK |  | decreased tumor volume | decreased tumor volume
8 | B1.226: anti-MDR1 antibody, Mouse; VH SEQ ID NO:112, VL SEQ ID NO:113 (antibody, listed as Mus musculus, V domains shown) VH: EVQLVESGGALVKPGGSLKLSCAASGFTFSNYAMSWVRQTPETRLEWVATISSGGSYTYYPDSVKGRFTISRDNAKNTLYLQMSSLRSEDTALYYCARYSNLAWFAYWGQGTLVTVSA VL: DVVMTQTPLSLPVSLGDQASISCRSSQSIVHSNGNTYLDWYLQKPGQSPKFMIYKVSNRFSGVPDRFSGSGSGTDFTLKISRVEAEDLGVYYCFQGSHVPYTFGGGTKLEIK |  | decreased tumor volume | decreased tumor volume
9 | B1-open.273(A): anti-MDR1 antibody, Mouse; VH SEQ ID NO:155, VL SEQ ID NO:159 (antibody, listed as Mus musculus, V domains shown) VH: QVQLQQSGPELVKTGASVKISCKASGYSFSNYYIHWVKQSHGKSLEWIGFISCYNGATFYNQKFKGKATFTVDTSSSTAYMKFNSLTFEDSAVYYCARLPIQFGNFYPMDYWGQGTSVTVSS VL: QIVLTQSPAIMSASLGERVTMTCTASSSVSSSYLHWYQQKPGSSPKLWIYSTSNLASGVPARFSGSGSGTSYSLTISSMEAEDAATYYCHQYHRSPPTFGAGTKLELK | bind to an epitope comprising extracellular loop 1 and extracellular loop 4 |  | 
10 | B1.225: anti-MDR1 antibody, Mouse; VH SEQ ID NO:105, VL SEQ ID NO:109 (antibody, listed as Mus musculus, V domains shown) VH: EVQLVESGGALVKPGGSLKLSCAASGFTFSNYGMSWVRQTPEKRLEWVATISSGGSYTYYPDTVKGRFTISRDNAKNTLHLQMSSLRSEDTALYYCARRGTNDAWFGYWGQGTLVTVSA VL: DVVMTQTPLSLPVSLGDQASISCRFSQSIVHSNGNTYLEWYLQKPGQSPKLLIYKVSNRFFGVPDRFSGSGSGTDFTLKISRVEAEDLGVYFCFQGSHVPQYTFGGGTKLEIK |  | decreased tumor volume | decreased tumor volume
